This passage reports Kd results from the Immune Epitope Database (IEDB).

Some targets named below: HLA-A*02:12; HLA-B*15:01; HLA-B*44:02; HLA-B*57:01; HLA-B*14:02; HLA-A*02:11; HLA-B*27:05; HLA-B*40:01.
Common to all, as to assay: IEDB peptide-MHC binding, purified MHC/competitive/fluorescence; filed as Kd, often an IC50 or EC50 that approximates it; ≥ and ≤ were set here for values at or beyond the usual limits of such assays
What all share (conditions): source organism: Entamoeba histolytica HM-1:IMSS

The term Kd denotes a measure of binding affinity in units of concentration. Higher therefore signals lower affinity. For the sequence EVIRATYPS, the Kd with HLA-A*02:12 is no less than 20 µM; in the experiment with HLA-B*15:01, no less than 20 µM; in the experiment with HLA-B*44:02, no less than 5 µM; with HLA-B*57:01 it was no less than 20 µM; with HLA-B*14:02, no less than 5 µM; with HLA-A*02:11 it was no less than 20 µM. The Kd in the experiment with HLA-B*27:05 and with HLA-B*40:01 was no less than 5 µM each time.
